4 molecules from US20240124607A1 (Merck Sharp & Dohme, published 2024) can be followed below.

B1: AB0466 F3' CEACAM5 TriNKET (bispecific antibody, human IgG1, kappa)
chain: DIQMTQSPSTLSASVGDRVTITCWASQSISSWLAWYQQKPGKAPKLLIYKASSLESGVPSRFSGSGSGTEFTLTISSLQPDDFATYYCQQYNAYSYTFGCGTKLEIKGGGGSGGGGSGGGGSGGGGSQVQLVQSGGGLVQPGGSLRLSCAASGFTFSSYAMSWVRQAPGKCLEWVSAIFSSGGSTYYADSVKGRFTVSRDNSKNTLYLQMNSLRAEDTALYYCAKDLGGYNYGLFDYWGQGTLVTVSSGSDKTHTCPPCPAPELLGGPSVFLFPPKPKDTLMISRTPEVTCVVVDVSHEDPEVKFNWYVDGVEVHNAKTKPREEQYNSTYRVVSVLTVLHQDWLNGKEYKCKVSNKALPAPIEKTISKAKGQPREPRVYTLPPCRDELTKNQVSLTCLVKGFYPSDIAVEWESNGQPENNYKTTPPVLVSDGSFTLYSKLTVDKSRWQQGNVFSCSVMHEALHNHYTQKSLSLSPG
heavy: EVQLVESGGGLVKPGGSLRLSCAASGFTFSSYSMNWVRQAPGKGLEWVSSISSSSSYIYYADSVKGRFTISRDNAKNSLYLQMNSLRAEDTAVYYCARGAPIGAAAGWFDPWGQGTLVTVSSASTKGPSVFPLAPSSKSTSGGTAALGCLVKDYFPEPVTVSWNSGALTSGVHTFPAVLQSSGLYSLSSVVTVPSSSLGTQTYICNVNHKPSNTKVDKKVEPKSCDKTHTCPPCPAPELLGGPSVFLFPPKPKDTLMISRTPEVTCVVVDVSHEDPEVKFNWYVDGVEVHNAKTKPREEQYNSTYRVVSVLTVLHQDWLNGKEYKCKVSNKALPAPIEKTISKAKGQPREPQVCTLPPSRDELTENQVSLTCLVKGFYPSDIAVEWESNGQPENNYKTTPPVLDSDGSFFLYSWLTVDKSRWQQGNVFSCSVMHEALHNHYTQKSLSLSPG
light: DIQMTQSPSSVSASVGDRVTITCRASQGISSWLAWYQQKPGKAPKLLIYAASSLQSGVPSRFSGSGSGTDFTLTISSLQPEDFATYYCQQGVSFPRTFGGGTKVEIKRTVAAPSVFIFPPSDEQLKSGTASVVCLLNNFYPREAKVQWKVDNALQSGNSQESVTEQDSKDSTYSLSSTLTLSKADYEKHKVYACEVTHQGLSSPVTKSFNRGEC
B2: AB0621 F3' CEACAM5 TriNKET (bispecific antibody, human IgG1, kappa)
chain: DIVMTQSPDSLAVSLGERATINCKSSHSLLYGNFQNNYLAWYQQKPGQPPKLLIYWASTRESGVPDRFSGSGSGTDFTLTISSLQAEDVAVYYCQQYYSYPYTFGCGTKLEIKGGGGSGGGGSGGGGSGGGGSQVQLVQSGAEVKKPGASVKVSCKASGYTFTAYTIHWVRQAPGQCLEWMGYINPSSGYTEYNQKFKDRTTLTADTSISTAYMELSRLRSDDTAVYYCTREGGLLWFDYWGQGTLVTVSSGSDKTHTCPPCPAPELLGGPSVFLFPPKPKDTLMISRTPEVTCVVVDVSHEDPEVKFNWYVDGVEVHNAKTKPREEQYNSTYRVVSVLTVLHQDWLNGKEYKCKVSNKALPAPIEKTISKAKGQPREPRVYTLPPCRDELTKNQVSLTCLVKGFYPSDIAVEWESNGQPENNYKTTPPVLVSDGSFTLYSKLTVDKSRWQQGNVFSCSVMHEALHNHYTQKSLSLSPG
heavy: B1 heavy
light: B1 light
B3: AB0411 F3' CEACAM5 TriNKET (bispecific antibody, human IgG1, kappa)
chain: DIQLTQSPATLSVSPGERATLSCRASQSVSSSYLAWYQQKPGQAPRLLIYGASSRATGIPDRFSGSGSGTDFTLTISRLEPEDFAVYYCQQYNNWPLTFGCGTKVEIKGGGGSGGGGSGGGGSGGGGSQVQLVQSGGGLVQPGGSLRLSCAASGFTFTSYAMSWVRQAPGKCLEWVSAISGTGDSTFYADSVKGRFTFSRDNSKNTLYLQMNSLRAEDTAVYYCAKDLGWLQYGLFDYWGQGTLVTVSSGSDKTHTCPPCPAPELLGGPSVFLFPPKPKDTLMISRTPEVTCVVVDVSHEDPEVKFNWYVDGVEVHNAKTKPREEQYNSTYRVVSVLTVLHQDWLNGKEYKCKVSNKALPAPIEKTISKAKGQPREPRVYTLPPCRDELTKNQVSLTCLVKGFYPSDIAVEWESNGQPENNYKTTPPVLVSDGSFTLYSKLTVDKSRWQQGNVFSCSVMHEALHNHYTQKSLSLSPG
heavy: B1 heavy
light: B1 light
B4: AB0264 F3' CEACAM5 TriNKET (bispecific antibody, human IgG1, kappa)
chain: B2 chain with S210P
heavy: B1 heavy
light: B1 light

Where a chain is given by its changes, count along the chain named.

T4 sequence (Q8SPW2 17-208 limits assumed): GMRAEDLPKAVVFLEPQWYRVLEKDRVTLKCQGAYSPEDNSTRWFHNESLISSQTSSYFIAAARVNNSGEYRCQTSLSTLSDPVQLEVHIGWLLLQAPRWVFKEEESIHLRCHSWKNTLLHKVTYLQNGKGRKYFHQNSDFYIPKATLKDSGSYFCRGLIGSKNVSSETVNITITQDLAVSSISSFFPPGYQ

The target of one assay is T1, hCEACAM5 A2-B2 domain (human, UniProt P06731 323-500, limits assumed).
T1 sequence: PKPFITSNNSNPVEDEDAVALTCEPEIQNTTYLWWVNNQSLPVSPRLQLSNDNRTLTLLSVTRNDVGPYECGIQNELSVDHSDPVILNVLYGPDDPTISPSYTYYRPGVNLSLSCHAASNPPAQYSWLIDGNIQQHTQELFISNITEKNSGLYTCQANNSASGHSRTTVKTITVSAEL
Kind of assay: SPR with hCEACAM5 domains. As for the experimental part: If the protein domain was an Fc fusion, AB0411, AB0466, AB0264, or AB0621 were captured using an anti-human Fab antibody (Cytiva, #28958325) immobilized onto a CM5 chip. The various hCEACAM5 protein domains (N-term, A1-B1, A2, B2, A3, or B3) were titrated over the captured TriNKETs at 50 μL/min for 180 sec of association and 300 sec of dissociation. The assay was run at 25° C. in HBS-EP+ running buffer, pH 7.4. The surface of the CM5 chip was regenerated using […] glycine pH 2.1.
The various hCEACAM5 protein domains were titrated over the captured antibody at 50 μL/min for 180 sec of association and 300 sec of dissociation. The assay was run at 37° C. in HBS-EP+ running buffer, pH 7.4. The surface of the CM5 chip was regenerated using 3M MgCl₂.
B1: the binding result is “no binding”.
As to B2, the binding result is recorded as “no binding”.
The same measure, in the same setting: in the case of B3 it was “no binding”; in that of B4, “no binding”.

A further assay concerns the target T2, Cyno NKG2D-mFc (cynomolgus monkey, UniProt P61252 78-216, limits assumed).
T2 construct: also called cynomolgus NKG2D fused to a mouse Fc
T2 sequence (looked up): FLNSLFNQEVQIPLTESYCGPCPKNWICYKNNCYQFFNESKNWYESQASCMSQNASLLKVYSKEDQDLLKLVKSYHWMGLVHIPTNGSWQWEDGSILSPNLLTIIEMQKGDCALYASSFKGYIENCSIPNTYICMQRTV
Kind of assay: SPR, NKG2D-mFc captured, 37C, pH 7.4. The protocol:
(§1) Binding to NKG2D was assessed by SPR using a mouse Fc capture kit (Cytiva, #BR100838) immobilized onto a CM5 chip. Human and cynomolgus NKG2D fused to a mouse Fc were captured and AB0411, AB0466, or AB0621 was titrated from 600 nM.
As for B1, binding was characterised by a dissociation constant (Kd) of 750 nM, the off-rate (koff) was 0.18 s⁻¹ and the kon was 230000 M⁻¹ s⁻¹.
As for B2, the Kd worked out at 520 nM, the off-rate constant (koff) came out at 0.12 s⁻¹ and the kon turned out to be 320000 M⁻¹ s⁻¹.
For B3, in that order: 590 nM, 0.15 s⁻¹ and 260000 M⁻¹ s⁻¹.

For a further assay, the target named is T3, soluble mouse Fc-human NKG2D dimer (human, UniProt P26718 78-216, limits assumed).
T3 construct: also called NKG2D-mFc; human NKG2D fused to a mouse Fc
T3 sequence (looked up): T2 sequence (looked up) with N38D, I128T
In words: SPR, NKG2D-mFc captured, 37C, pH 7.4. The protocol:
as §1
B1: the affinity, expressed as Kd, was 680 nM; the koff is 0.16 s⁻¹; the kon came to 240000 M⁻¹ s⁻¹.
B2: the Kd was found to be 570 nM, the koff stood at 0.14 s⁻¹ and the kon turned out to be 320000 M⁻¹ s⁻¹.
In the case of B3, the Kd stood at 490 nM, the koff turned out to be 0.12 s⁻¹ and the kon is 250000 M⁻¹ s⁻¹.

A further assay concerns the target T4, Cyno FcγRIIIA (cynomolgus monkey, UniProt Q8SPW2 17-208, limits assumed, biotinylated).
T4 construct: also called cynomolgus CD16A
In words: SPR, biotin-CD16A on SA chip, 25C, pH 7.4. As for the experimental part:
(§2) Binding to human and cynomolgus CD16A was assessed using biotinylated CD16A captured on a streptavidin (SA) sensor chip (Cytiva, #BR100531). AB0411, AB0466, or AB0621 was titrated from 1500 nM at 25° C. at 30 μL/min for 150 sec association followed by 300 sec dissociation. The surface of the chip was regenerated with 2 mM sodium hydroxide for 5 sec at 30 μL/min. Running buffer was HBS-EP+. […] The V158 isoform bound ˜2- to 3-fold tighter than the F158 isoform as expected.
Regarding B1, the affinity, expressed as Kd, was 140 nM; the koff was 0.11 s⁻¹; the on-rate constant (kon) amounted to 790000 M⁻¹ s⁻¹.
With B2, the dissociation constant (Kd) was found to be 160 nM, the koff came to 0.11 s⁻¹ and the kon is 720000 M⁻¹ s⁻¹.
B3 came in with a Kd of 100 nM, a koff of 0.075 s⁻¹ and a kon of 730000 M⁻¹ s⁻¹.

The target of another assay is human CD16A (FcγRIIIA) F158 (human, UniProt P08637 17-208, limits assumed, biotinylated). Kind of assay: SPR, biotin-CD16A on SA chip, 25C, pH 7.4. As for the experimental part: as §2
Chain of human CD16A (FcγRIIIA) F158 (P08637 17-208 limits assumed): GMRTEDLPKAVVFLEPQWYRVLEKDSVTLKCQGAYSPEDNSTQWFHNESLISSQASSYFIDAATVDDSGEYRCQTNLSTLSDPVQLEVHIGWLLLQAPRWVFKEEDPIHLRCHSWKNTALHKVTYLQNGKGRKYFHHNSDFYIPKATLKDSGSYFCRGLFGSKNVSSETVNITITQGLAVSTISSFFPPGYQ
B1: the Kd stood at 690 nM, the off-rate constant (koff) is 0.21 s⁻¹ and the kon is 310000 M⁻¹ s⁻¹.
B2 gave a Kd of 640 nM, a koff of 0.19 s⁻¹ and a kon of 300000 M⁻¹ s⁻¹.
Consider B3, for which the Kd stood at 370 nM, the koff turned out to be 0.086 s⁻¹ and the kon was found to be 220000 M⁻¹ s⁻¹.

The target in a further assay is T5, human CD16A (FcγRIIIA) V158 (human, UniProt P08637 17-208, limits assumed, biotinylated in the assay of Table 21).
T5 construct: also called CD16A (V158/V176)
T5 sequence (P08637 17-208 F176V limits assumed): as the sequence (P08637 17-208 limits assumed) above, with F160V counted along it
In words: SPR, biotin-CD16A on SA chip, 25C, pH 7.4. As for the experimental part:
as §2
On to B1, for which the affinity, expressed as Kd, was 260 nM; the koff worked out at 0.078 s⁻¹; the kon came to 300000 M⁻¹ s⁻¹.
In turn, B2 displayed a Kd of 280 nM, a koff of 0.072 s⁻¹ and a kon of 260000 M⁻¹ s⁻¹.
In the case of B3, the Kd amounted to 120 nM, the off-rate (koff) turned out to be 0.029 s⁻¹ and the kon turned out to be 230000 M⁻¹ s⁻¹.

Another assay concerns the target T6, Human CEACAM6 (human, UniProt P40199 35-320, limits assumed).
T6 sequence (looked up): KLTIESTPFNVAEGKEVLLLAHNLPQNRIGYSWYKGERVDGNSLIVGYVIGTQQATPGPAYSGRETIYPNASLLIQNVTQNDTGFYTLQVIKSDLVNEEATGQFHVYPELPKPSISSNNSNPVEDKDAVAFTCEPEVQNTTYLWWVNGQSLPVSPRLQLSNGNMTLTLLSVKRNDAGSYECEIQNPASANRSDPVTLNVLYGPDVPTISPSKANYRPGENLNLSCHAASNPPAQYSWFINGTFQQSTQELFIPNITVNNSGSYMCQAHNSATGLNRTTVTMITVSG
In words: SPR, 37C, pH 7.4. As for the experimental part:
To determine the affinity and cross-reactivity of CEACAM5 TriNKET molecules, AB0411, AB0466, or AB0621 TriNKETs were captured using an anti-human Fc capture antibody (Cytiva, #BR100839) immobilized onto a Biacore CM5 standard surface sensor chip following manufacturer instructions. Human or cynomolgus CEACAM5 were titrated over captured AB0411, AB0466, and AB0621 as 2-fold serial dilutions starting from 300 nM. Association was monitored for 300 sec and dissociation was monitored for 600 sec. The assay was run at 37° C. at pH 7.4 and 6.0. The surface of the CM5 chip was regenerated with 10 mM glycine pH 1.5 for 20 sec at 100 μL/min.
Binding to human and cynomolgus CEACAM1, 6, and 8 was assessed by SPR using the same protocol as for CEACAM5 but using up to 600 and 1200 nM for titration of each protein. There were no detectable binding signals at these concentrations for AB0621. In contrast, reproducible weak binding signals were detected for AB0411 and AB0466, but these two TriNKETs also bound to different epitope(s) on the N-terminus of CEACAM5. Typical weak binding sensorgrams for AB0411 and AB0466 against human CEACAM1 and 6 indicated weak but notable signals compared to AB0621. […]
For B1, the binding result is “no binding (tested: up to 600 and 1200 nM)”.
For the molecule B2, the binding result is “no binding (tested: up to 600 and 1200 nM)”.
Same read-out and setting: in the case of B4 it was “no binding (tested: up to 600 and 1200 nM)”.
